Test results from US20070031912A1 (RIKEN, published 2007).

B1: mKO-FM14-N-LZA (other)
chain: MVSVIKPEMKMRYYMDGSVNGHEFTIEGEGTGRPYEGHQEMTLRVTMAEGGPMPFAFDLVSHVFCYGHRVFTKYPEEIPDYFKQAFPEGLSWERSLEFEDGGSASVSAHISLRGNTFYHKSKFTGVNFPADGPIMQNQSVDWEPSTEKITASDGVLKGDVTMYLKLEGGNSADGGGGSGGGGSGGGGSIHHTGGRAQLEKELQALEKENAQLEWELQALEKELAQK
notes: Made by in vitro translation; also called fusion of the N-terminal fragment (1st-168th) of mKO-FM14 with leucine zipper acidic (LZA)
B2: mKO-FM3-N-LZA (other)
chain: MVSVIKPEMKMRYYMDGSVNGHEFTIEGEGTGRPYEGHQEMTLRVTMAEGGPMPFAFDLVSHVFCYGHRSFTKYPEEIPDYFKQAFPEGLSWERSLEFEDGGSASVSAHISLRGNTFYHKSKFTGVNFPADGPIMQNQSVDWEPSTEKITASDGVLKGDVTMYLKLEGGNSADGGGGSGGGGSGGGGSIHHTGGRAQLEKELQALEKENAQLEWELQALEKELAQK
notes: N-terminal fragment (1-168) of mKO-FM3 (serine at position 70) fused with LZA
B3: mKO-FM5-N-LZA (other)
chain: MVSVIKPEMKMRYYMDGSVNGHEFTIEGEGTGRPYEGHQEMTLRVTMAEGGPMPFAFDLVSHVFCYGHRAFTKYPEEIPDYFKQAFPEGLSWERSLEFEDGGSASVSAHISLRGNTFYHKSKFTGVNFPADGPIMQNQSVDWEPSTEKITASDGVLKGDVTMYLKLEGGNSADGGGGSGGGGSGGGGSIHHTGGRAQLEKELQALEKENAQLEWELQALEKELAQK
notes: N-terminal fragment (1-168) of mKO-FM5 (alanine at position 70) fused with LZA
B4: mKO-FM20-N-LZA (other)
chain: MVSVIKPEMKMRYYMDGSVNGHEFTIEGEGTGRPYEGHQEMTLRVTMAEGGPMPFAFDLVSHVFCYGHRCFTKYPEEIPDYFKQAFPEGLSWERSLEFEDGGSASVSAHISLRGNTFYHKSKFTGVNFPADGPIMQNQSVDWEPSTEKITASDGVLKGDVTMYLKLEGGNSADGGGGSGGGGSGGGGSIHHTGGRAQLEKELQALEKENAQLEWELQALEKELAQK
notes: N-terminal fragment (1-168) of mKO-FM20 (cysteine at position 70) fused with LZA
B5: mKO-FM24-N-LZA (other)
chain: MVSVIKPEMKMRYYMDGSVNGHEFTIEGEGTGRPYEGHQEMTLRVTMAEGGPMPFAFDLVSHVFCYGHRTFTKYPEEIPDYFKQAFPEGLSWERSLEFEDGGSASVSAHISLRGNTFYHKSKFTGVNFPADGPIMQNQSVDWEPSTEKITASDGVLKGDVTMYLKLEGGNSADGGGGSGGGGSGGGGSIHHTGGRAQLEKELQALEKENAQLEWELQALEKELAQK
notes: N-terminal fragment (1-168) of mKO-FM24 (threonine at position 70) fused with LZA
B6: mKO-FM14-N (other)
chain: MVSVIKPEMKMRYYMDGSVNGHEFTIEGEGTGRPYEGHQEMTLRVTMAEGGPMPFAFDLVSHVFCYGHRVFTKYPEEIPDYFKQAFPEGLSWERSLEFEDGGSASVSAHISLRGNTFYHKSKFTGVNFPADGPIMQNQSVDWEPSTEKITASDGVLKGDVTMYLKLEG
notes: Fragment without linker and leucine zipper, made by in vitro translation; also called N-terminal fragment from the 1st to the 168th of mKO-FM14; negative control without leucine zipper

Assays:
mKO-FM14-C-LZB [1] = biological target: T1, mKO-FM14-C-LZB; experiment: split fluorescent protein complementation in vitro, in vitro translated proteins mixed in PBS at 37° C., fluorescence after 3, 5 and 7 hours
T1 construct: Made by in vitro translation; also called fusion of the C-terminal fragment (169th-218th) of mKO-FM14 with leucine zipper basic (LZB)
T1 chain: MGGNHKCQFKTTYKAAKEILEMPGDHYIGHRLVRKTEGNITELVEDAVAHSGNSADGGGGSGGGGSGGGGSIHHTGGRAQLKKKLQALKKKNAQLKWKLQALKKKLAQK
Description: (§1) 20 μl of each mKO-FM14-N-LZA and mKO-FM14-C-LZB which was synthesized by in vitro translation was added to 1000 μl of PBS and the total volume was made up to 1040 μl. The mixture was left standing at 37° C. and the fluorescence measurements were carried out every 2 hours (after 3, 5 and 7 hours from the mixing) by a F-2500 (HITACHI). The method of measurement was by the double wavelength excitation and a single wavelength measurement (excitation spectra at 580 nm, green component and orange component were set at 500 nm and 548 nm, respectively) or by the double wavelength excitation and double wavelength measurement (green fluorescence at 509 nm by excitation by 470 nm and orange fluorescence at 560 nm by excitation by 520 nm were obtained) (FIG. 2). Also, as negative controls, 20 μl of each mKO-FM14-N and mKO-FM14-C which was synthesized by in vitro translation and to which no proteins for interaction were fused was added to 1000 μl of PBS and the total volume was made up to 1040 μl. The mixture was left standing at 37° C. and the fluorescence measurements were carried out every 2 hours (after 3, 5 and 7 hours from the mixing) by a F-2500 (HITACHI).

mKO-FM14-C-LZB [2] = biological target: T1, mKO-FM14-C-LZB; experiment: split fluorescent protein complementation in vitro, fluorescence from 1 to 12 hours after mixing
Description: as §1, with “The mixture was left standing at 37° C. and the fluorescence measurements were carried out every 2 hours (after 3, 5 and 7 hours from the mixing) by a F-2500 (HITACHI).” left out
By substituting the 70th proline (P) of mKO with various amino acids, variants were obtained in which the ratio of green fluorescence and orange fluorescence was changed according to the passage of time. The variant in which 70th proline (P) was substituted with alanine (A), serine (S), cysteine (C), threonine (T), and valine (V) was designated as mKO-FM5, mKO-FM3, mKO-FM20, mKO-FM24 and mKO-FM14, respectively. Each variant was similarly split into two molecules and similarly fused with LZA and LZB to carry out analyses.

mKO-FM14-C = biological target: T2, mKO-FM14-C; experiment: split fluorescent protein complementation in vitro, 20 µl of each in vitro translated fragment in PBS at 37° C., fluorescence after 3, 5 and 7 hours
T2 construct: Fragment without linker and leucine zipper, made by in vitro translation; also called C-terminal fragment from 169th to 218th of mKO-FM14; negative control without leucine zipper
T2 chain: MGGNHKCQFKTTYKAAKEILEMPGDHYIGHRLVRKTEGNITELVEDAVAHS
Description: as §1

Binder	binding result (mKO-FM14-C-LZB [2])	further results
B1		binding result (mKO-FM14-C-LZB [1]): binds
B2	binds	
B3	binds	
B4	binds	
B5	binds	
B6		binding result (mKO-FM14-C): no binding
